From publication PMC10527483

Tests used:
Assay in all cases: pull-down
QKI7 = target: T1, QKI7 (human, UniProt Q96PU8-6 1-325)
T1 sequence: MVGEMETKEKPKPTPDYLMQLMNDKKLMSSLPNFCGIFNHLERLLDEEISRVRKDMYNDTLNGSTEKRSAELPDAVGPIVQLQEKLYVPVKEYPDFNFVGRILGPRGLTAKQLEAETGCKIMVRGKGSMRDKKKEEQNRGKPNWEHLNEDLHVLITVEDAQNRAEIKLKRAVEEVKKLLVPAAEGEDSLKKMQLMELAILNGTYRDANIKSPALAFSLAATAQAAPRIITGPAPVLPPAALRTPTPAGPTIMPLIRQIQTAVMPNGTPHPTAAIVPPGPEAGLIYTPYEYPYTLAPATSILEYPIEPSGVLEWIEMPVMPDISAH

QKI6 = target: T2, QKI6 (human, UniProt Q96PU8-9 1-319)
T2 sequence: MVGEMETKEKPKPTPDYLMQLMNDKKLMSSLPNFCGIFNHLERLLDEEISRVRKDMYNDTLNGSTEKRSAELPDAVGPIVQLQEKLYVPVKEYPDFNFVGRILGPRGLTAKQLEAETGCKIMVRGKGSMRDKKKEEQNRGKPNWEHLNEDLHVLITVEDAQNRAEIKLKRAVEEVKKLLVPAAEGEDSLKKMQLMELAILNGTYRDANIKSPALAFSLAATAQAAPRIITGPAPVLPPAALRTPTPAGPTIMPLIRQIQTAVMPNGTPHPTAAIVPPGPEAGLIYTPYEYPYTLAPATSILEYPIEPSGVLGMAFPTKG

QKI5 = target: T3, QKI5 (human, UniProt Q96PU8 1-341)
T3 sequence: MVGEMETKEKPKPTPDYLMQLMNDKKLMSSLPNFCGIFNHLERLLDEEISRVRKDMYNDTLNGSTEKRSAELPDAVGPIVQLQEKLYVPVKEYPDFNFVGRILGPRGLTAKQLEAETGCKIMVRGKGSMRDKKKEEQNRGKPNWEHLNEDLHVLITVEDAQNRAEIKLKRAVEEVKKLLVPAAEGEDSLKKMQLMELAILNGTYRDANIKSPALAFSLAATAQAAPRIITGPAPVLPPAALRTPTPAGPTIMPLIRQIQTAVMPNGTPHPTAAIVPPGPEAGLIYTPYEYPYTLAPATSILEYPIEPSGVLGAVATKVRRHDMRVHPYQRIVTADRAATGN

Measured: binding result

B1: m7G-Oligo, 60-mer (ssRNA)
RNA: CCAAUAAAAUAUUAACCACCAAUAAAAUAUUAACCAAGAUCCACCAAUAAAAUAUUAACC
modifications: N7-methylguanosine at G38 (the only G)
binds: all assays above
